Measured values: US20250163145A1 (SHIONOGI, published 2025)
Where no end group is shown, it is not given here.

T1: epitope peptide Cys-CE3C long (also: biotin label, site not given here)
T1 peptide: CSVNVDKQPKYEYSL

B1: humanized 15H11 CDR graft IGKV3-20 / IGHV1-2 (R94P) (antibody, human IgG4 S228P, kappa, V domains shown)
VH: QVQLVQSGAEVKKPGASVKVSCKASGYTFTDYNMHWVRQAPGQGLEWMGRINPKNGVINSNEKFKDRVTMTRDTSISTAYMELSRLRSDDTAVYYCAPSYYGGNTDAYWGQGTLVTVSS
VL: EIVLTQSPATLSLSPGERATLSCRASESVDNYGISFMNWYQQKPGQAPRLLIYAASSQGSGIPARFSGSGSGTDFTLTISRLEPEDFAVYYCQQSKEFPWTFGGGTKVEIKR
notes: hIgG4Pro/hIgK
B2: humanized 15H11 CDR graft IGKV4-1 / IGHV1-2 (R94P) (antibody, human IgG4 S228P, kappa, V domains shown)
VH: QVQLVQSGAEVKKPGASVKVSCKASGYTFTDYNMHWVRQAPGQGLEWMGRINPKNGVINSNEKFKDRVTMTRDTSISTAYMELSRLRSDDTAVYYCAPSYYGGNTDAYWGQGTLVTVSS
VL: DIVMTQSPDSLAVSLGERATINCRASESVDNYGISFMNWYQQKPGQPPKLLIYAASSQGSGVPDRFSGSGSGTDFTLTISSLQAEDVAVYYCQQSKEFPWTFGGGTKVEIKR
notes: hIgG4Pro/hIgK
B3: humanized 15H11 CDR graft IGKV3-11 / IGHV7-4-1 (R94P) (antibody, human IgG4 S228P, kappa, V domains shown)
VH: QVQLVQSGSELKKPGASVKVSCKASGYTFTDYNMHWVRQAPGQGLEWMGRINPKNGVINSNEKFKDRFVFSLDTSVSTAYLQISSLKAEDTAVYYCAPSYYGGNTDAYWGQGTLVTVSS
VL: EIVLTQSPATLSLSPGERATLSCRASESVDNYGISFMNWYQQKPGQAPRLLIYAASSQGSGIPARFSGSGSGTDFTLTISSLEPEDFAVYYCQQSKEFPWTFGGGTKVEIKR
notes: hIgG4Pro/hIgK
B4: humanized 15H11 CDR graft IGKV3-20 / IGHV1-3 (R94P) (antibody, human IgG4 S228P, kappa, V domains shown)
VH: QVQLVQSGAEVKKPGASVKVSCKASGYTFTDYNMHWVRQAPGQRLEWMGRINPKNGVINSNEKFKDRVTITRDTSASTAYMELSSLRSEDTAVYYCAPSYYGGNTDAYWGQGTLVTVSS
VL: EIVLTQSPATLSLSPGERATLSCRASESVDNYGISFMNWYQQKPGQAPRLLIYAASSQGSGIPARFSGSGSGTDFTLTISRLEPEDFAVYYCQQSKEFPWTFGGGTKVEIKR
notes: hIgG4Pro/hIgK
B5: humanized 15H11 CDR graft IGKV7-3 / IGHV1-46 (R94P) (antibody, human IgG4 S228P, kappa, V domains shown)
VH: QVQLVQSGAEVKKPGASVKVSCKASGYTFTDYNMHWVRQAPGQGLEWMGRINPKNGVINSNEKFKDRVTMTRDTSTSTVYMELSSLRSEDTAVYYCAPSYYGGNTDAYWGQGTLVTVSS
VL: DIVLTQSPASLAVSPGQRATITCRASESVDNYGISFMNWYQQKPGQPPKLLIYAASSQGSGVPARFSGSGSGTDFTLTINPVEANDTANYYCQQSKEFPWTFGGGTKVEIKR
notes: hIgG4Pro/hIgK
B6: humanized 15H11 CDR graft IGKV3-20 / IGHV1-46 (R94P) (antibody, human IgG4 S228P, kappa, V domains shown)
VH: QVQLVQSGAEVKKPGASVKVSCKASGYTFTDYNMHWVRQAPGQGLEWMGRINPKNGVINSNEKFKDRVTMTRDTSTSTVYMELSSLRSEDTAVYYCAPSYYGGNTDAYWGQGTLVTVSS
VL: EIVLTQSPATLSLSPGERATLSCRASESVDNYGISFMNWYQQKPGQAPRLLIYAASSQGSGIPARFSGSGSGTDFTLTISRLEPEDFAVYYCQQSKEFPWTFGGGTKVEIKR
notes: hIgG4Pro/hIgK
B7: humanized 15H11 CDR graft IGKV4-1 / IGHV1-2 (antibody, human IgG4 S228P, kappa, V domains shown)
VH: QVQLVQSGAEVKKPGASVKVSCKASGYTFTDYNMHWVRQAPGQGLEWMGRINPKNGVINSNEKFKDRVTMTRDTSISTAYMELSRLRSDDTAVYYCARSYYGGNTDAYWGQGTLVTVSS
VL: DIVMTQSPDSLAVSLGERATINCRASESVDNYGISFMNWYQQKPGQPPKLLIYAASSQGSGVPDRFSGSGSGTDFTLTISSLQAEDVAVYYCQQSKEFPWTFGGGTKVEIKR
notes: hIgG4Pro/hIgK
B8: humanized 15H11 CDR graft IGKV7-3 / IGHV1-18 (R94P) (antibody, human IgG4 S228P, kappa, V domains shown)
VH: QVQLVQSGAEVKKPGASVKVSCKASGYTFTDYNMHWVRQAPGQGLEWMGRINPKNGVINSNEKFKDRVTMTTDTSTSTAYMELRSLRSDDTAVYYCAPSYYGGNTDAYWGQGTLVTVSS
VL: DIVLTQSPASLAVSPGQRATITCRASESVDNYGISFMNWYQQKPGQPPKLLIYAASSQGSGVPARFSGSGSGTDFTLTINPVEANDTANYYCQQSKEFPWTFGGGTKVEIKR
notes: hIgG4Pro/hIgK
B9: humanized 15H11 CDR graft IGKV4-1 / IGHV1-46 (R94P) (antibody, human IgG4 S228P, kappa, V domains shown)
VH: QVQLVQSGAEVKKPGASVKVSCKASGYTFTDYNMHWVRQAPGQGLEWMGRINPKNGVINSNEKFKDRVTMTRDTSTSTVYMELSSLRSEDTAVYYCAPSYYGGNTDAYWGQGTLVTVSS
VL: DIVMTQSPDSLAVSLGERATINCRASESVDNYGISFMNWYQQKPGQPPKLLIYAASSQGSGVPDRFSGSGSGTDFTLTISSLQAEDVAVYYCQQSKEFPWTFGGGTKVEIKR
notes: hIgG4Pro/hIgK
B10: humanized 15H11 CDR graft IGKV3-20 / IGHV7-4-1 (R94P) (antibody, human IgG4 S228P, kappa, V domains shown)
VH: QVQLVQSGSELKKPGASVKVSCKASGYTFTDYNMHWVRQAPGQGLEWMGRINPKNGVINSNEKFKDRFVFSLDTSVSTAYLQISSLKAEDTAVYYCAPSYYGGNTDAYWGQGTLVTVSS
VL: EIVLTQSPATLSLSPGERATLSCRASESVDNYGISFMNWYQQKPGQAPRLLIYAASSQGSGIPARFSGSGSGTDFTLTISRLEPEDFAVYYCQQSKEFPWTFGGGTKVEIKR
notes: hIgG4Pro/hIgK
B11: humanized 15H11 CDR graft IGKV4-1 / IGHV1-3 (R94P) (antibody, human IgG4 S228P, kappa, V domains shown)
VH: QVQLVQSGAEVKKPGASVKVSCKASGYTFTDYNMHWVRQAPGQRLEWMGRINPKNGVINSNEKFKDRVTITRDTSASTAYMELSSLRSEDTAVYYCAPSYYGGNTDAYWGQGTLVTVSS
VL: DIVMTQSPDSLAVSLGERATINCRASESVDNYGISFMNWYQQKPGQPPKLLIYAASSQGSGVPDRFSGSGSGTDFTLTISSLQAEDVAVYYCQQSKEFPWTFGGGTKVEIKR
notes: hIgG4Pro/hIgK
B12: humanized 15H11 CDR graft IGKV4-1 / IGHV1-18 (R94P) (antibody, human IgG4 S228P, kappa, V domains shown)
VH: QVQLVQSGAEVKKPGASVKVSCKASGYTFTDYNMHWVRQAPGQGLEWMGRINPKNGVINSNEKFKDRVTMTTDTSTSTAYMELRSLRSDDTAVYYCAPSYYGGNTDAYWGQGTLVTVSS
VL: DIVMTQSPDSLAVSLGERATINCRASESVDNYGISFMNWYQQKPGQPPKLLIYAASSQGSGVPDRFSGSGSGTDFTLTISSLQAEDVAVYYCQQSKEFPWTFGGGTKVEIKR
notes: hIgG4Pro/hIgK
B13: humanized 15H11 CDR graft IGKV3-20 / IGHV1-18 (R94P) (antibody, human IgG4 S228P, kappa, V domains shown)
VH: QVQLVQSGAEVKKPGASVKVSCKASGYTFTDYNMHWVRQAPGQGLEWMGRINPKNGVINSNEKFKDRVTMTTDTSTSTAYMELRSLRSDDTAVYYCAPSYYGGNTDAYWGQGTLVTVSS
VL: EIVLTQSPATLSLSPGERATLSCRASESVDNYGISFMNWYQQKPGQAPRLLIYAASSQGSGIPARFSGSGSGTDFTLTISRLEPEDFAVYYCQQSKEFPWTFGGGTKVEIKR
notes: hIgG4Pro/hIgK
B14: humanized 15H11 CDR graft IGKV7-3 / IGHV1-2 (antibody, human IgG4 S228P, kappa, V domains shown)
VH: QVQLVQSGAEVKKPGASVKVSCKASGYTFTDYNMHWVRQAPGQGLEWMGRINPKNGVINSNEKFKDRVTMTRDTSISTAYMELSRLRSDDTAVYYCARSYYGGNTDAYWGQGTLVTVSS
VL: DIVLTQSPASLAVSPGQRATITCRASESVDNYGISFMNWYQQKPGQPPKLLIYAASSQGSGVPARFSGSGSGTDFTLTINPVEANDTANYYCQQSKEFPWTFGGGTKVEIKR
notes: hIgG4Pro/hIgK
B15: humanized 15H11 CDR graft IGKV7-3 / IGHV1-2 (R94P) (antibody, human IgG4 S228P, kappa, V domains shown)
VH: QVQLVQSGAEVKKPGASVKVSCKASGYTFTDYNMHWVRQAPGQGLEWMGRINPKNGVINSNEKFKDRVTMTRDTSISTAYMELSRLRSDDTAVYYCAPSYYGGNTDAYWGQGTLVTVSS
VL: DIVLTQSPASLAVSPGQRATITCRASESVDNYGISFMNWYQQKPGQPPKLLIYAASSQGSGVPARFSGSGSGTDFTLTINPVEANDTANYYCQQSKEFPWTFGGGTKVEIKR
notes: hIgG4Pro/hIgK
B16: humanized 15H11 CDR graft IGKV7-3 / IGHV1-3 (R94P) (antibody, human IgG4 S228P, kappa, V domains shown)
VH: QVQLVQSGAEVKKPGASVKVSCKASGYTFTDYNMHWVRQAPGQRLEWMGRINPKNGVINSNEKFKDRVTITRDTSASTAYMELSSLRSEDTAVYYCAPSYYGGNTDAYWGQGTLVTVSS
VL: DIVLTQSPASLAVSPGQRATITCRASESVDNYGISFMNWYQQKPGQPPKLLIYAASSQGSGVPARFSGSGSGTDFTLTINPVEANDTANYYCQQSKEFPWTFGGGTKVEIKR
notes: hIgG4Pro/hIgK
B17: humanized 15H11 CDR graft IGKV4-1 / IGHV7-4-1 (R94P) (antibody, human IgG4 S228P, kappa, V domains shown)
VH: QVQLVQSGSELKKPGASVKVSCKASGYTFTDYNMHWVRQAPGQGLEWMGRINPKNGVINSNEKFKDRFVFSLDTSVSTAYLQISSLKAEDTAVYYCAPSYYGGNTDAYWGQGTLVTVSS
VL: DIVMTQSPDSLAVSLGERATINCRASESVDNYGISFMNWYQQKPGQPPKLLIYAASSQGSGVPDRFSGSGSGTDFTLTISSLQAEDVAVYYCQQSKEFPWTFGGGTKVEIKR
notes: hIgG4Pro/hIgK

Target: T1, epitope peptide Cys-CE3C long
Assay: ELISA, supernatant IgG on anti-human IgG plate, biotin-peptide + streptavidin-HRP; titer per unit IgG
Experimental: The amount of IgG in the supernatant was determined by the following method. To evaluate the amount of IgG in the supernatant, the culture supernatant was added to an anti-human IgG antibody (manufactured by Jackson) immobilized plate, after reacting at room temperature for 3 hours, washed twice with ELISA wash buffer, and HRP-labeled anti-human IgG antibody (manufactured by Jackson) was reacted at 4° C. overnight. After washing twice with ELISA wash buffer and developing color by adding TMB-Substrate Chromogen (manufactured by Thermo Fisher Scientific), the reaction was stopped with an equal volume of 0.5N sulfuric acid, and the absorbance at 450 nm was measured to calculate (A) the dilution factor of the culture supernatant at which the OD was 1.0.
The titer of IgG in the supernatant against the epitope peptide was determined by the following method. In order to evaluate the titer of IgG in the supernatant against epitope peptides, the culture supernatant was added to an anti-human IgG antibody (manufactured by Jackson) immobilized plate, reacted for 3 hours at room temperature, and then washed twice with ELISA wash buffer, and a biotin-labeled epitope peptide (Cys-CE3C long: SEQ ID NO: 13) and Streptavidin-HRP (manufactured by PIERCE) were added and reacted overnight at 4° C. After washing twice with ELISA wash buffer and developing color by adding TMB-Substrate Chromogen (manufactured by Thermo Fisher Scientific), the reaction was stopped with an equal volume of 0.5N sulfuric acid, the absorbance at 450 nm was measured to calculate (B) the dilution ratio of the culture supernatant at which the OD was 1.0.
The titer (ratio) against the epitope peptide (Cys-CE3C long: SEQ ID NO: 13) per unit IgG amount was calculated as (B)/(A).

In order of falling “(B)/(A) titer (ratio) against the epitope peptide per unit IgG amount” value:
1. B8  0.24
2. B15  0.22
3. B16  0.21
4. B17  0.21
5. B2  0.18
6. B3  0.18
7. B5  0.18
8. B10  0.15
9. B11  0.15
10. B9  0.13
11. B12  0.13
12. B13  0.13
13. B1  0.12
14. B4  0.12
15. B6  0.09
16. B14  0.04
17. B7  0.03
